Measured values published in patent US20090298765A1 (Takeda / Millennium, published 2009).
Starred links: 1 amine or outer side, 2 acyl side, 3 side chain; linkers in the order of their positions; H or OH if unused. Non-standard residues stand in square brackets, D forms with d. Primed or numbered codes have the meaning given here. No end group written: not given here. Trp(For)″ = Trp(CHO), formyl-Trp, O=Cn1cc(C[C@H](N[*:1])C(=O)[*:2])c2ccccc21; Arg(Me) = CNC(=N)NCCC[C@H](N)C(=O)O; azaGly = NNC(=O)O

B1: des(1-2)-Acetyl-[Arg3,AzaGly7,Arg(Me)9]MS10 (peptide)
peptide: Ac-RNSF[azaGly]L[Arg(Me)]F-NH2
SMILES: CNC(=N)NCCC[C@H](NC(=O)[C@H](CC(C)C)NC(=O)NNC(=O)[C@H](Cc1ccccc1)NC(=O)[C@H](CO)NC(=O)[C@H](CC(N)=O)NC(=O)[C@H](CCCNC(=N)N)NC(C)=O)C(=O)N[C@@H](Cc1ccccc1)C(N)=O
notes: also called Compound No. 275
B2: des(1-2)-Acetyl-[Thr3,AzaGly7,Arg(Me)9]MS10 (peptide)
peptide: Ac-TNSF[azaGly]L[Arg(Me)]F-NH2
SMILES: CNC(=N)NCCC[C@H](NC(=O)[C@H](CC(C)C)NC(=O)NNC(=O)[C@H](Cc1ccccc1)NC(=O)[C@H](CO)NC(=O)[C@H](CC(N)=O)NC(=O)[C@@H](NC(C)=O)[C@@H](C)O)C(=O)N[C@@H](Cc1ccccc1)C(N)=O
notes: also called Compound No. 276
B3: [D-Tyr1,Pro3,AzaGly7,Arg(Me)9]MS10 (peptide)
peptide: [dY]NPNSF[azaGly]L[Arg(Me)]F-NH2
modifications: N-terminus assumed
SMILES: CNC(=N)NCCC[C@H](NC(=O)[C@H](CC(C)C)NC(=O)NNC(=O)[C@H](Cc1ccccc1)NC(=O)[C@H](CO)NC(=O)[C@H](CC(N)=O)NC(=O)[C@@H]1CCCN1C(=O)[C@H](CC(N)=O)NC(=O)[C@H](N)Cc1ccc(O)cc1)C(=O)N[C@@H](Cc1ccccc1)C(N)=O
notes: also called Compound No. 253

target: T1, human OT7T175 (metastin receptor) (human, UniProt Q969F8 1-398); assay: competition with Cy-5 metastin (40-54) on hOT7T175-CHO cells, FMAT
T1 construct: expressed on CHO cells; also called hOT7T175; hOT7T175-expressed CHO cells
T1 sequence (Q969F8 whole entry L364H): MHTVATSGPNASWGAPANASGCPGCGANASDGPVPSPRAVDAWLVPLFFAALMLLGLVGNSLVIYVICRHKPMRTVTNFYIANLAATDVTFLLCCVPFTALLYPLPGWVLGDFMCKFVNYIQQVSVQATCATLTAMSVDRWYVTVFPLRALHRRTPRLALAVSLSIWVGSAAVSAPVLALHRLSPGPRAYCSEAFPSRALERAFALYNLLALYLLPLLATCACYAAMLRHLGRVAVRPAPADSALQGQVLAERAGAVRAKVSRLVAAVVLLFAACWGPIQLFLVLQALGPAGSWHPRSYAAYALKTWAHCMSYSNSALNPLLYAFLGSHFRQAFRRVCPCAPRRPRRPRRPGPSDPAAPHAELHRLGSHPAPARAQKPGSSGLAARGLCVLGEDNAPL
Experimental: hOT7T175-Expressed CHO cells were cultured in MEM-α medium (nucleic acid-free) containing 10% dialyzed serum. The medium was removed and the adhered cells were washed with PBS. Then, PBS containing 5 mM EDTA was added and the cells were scraped from a flask with a cell scraper.
To each well of a 96-Well Black Clear Bottom Microplate (Applied Biosystems, Inc.), 10 μL of assay buffer containing 1% dimethylsulfoxide was added to examine total binding, 10 μL of 10 μM non-labeled peptide (having the same amino acid sequence as that of labeled one) solution diluted with assay buffer to examine non-specific binding, and 10 μL of a test compound diluted with assay buffer to examine a binding inhibition activity of the test compound, and furthermore, 90 μL each of the cell suspension was dispensed to each well. […] Specific binding is calculated as non-specific binding subtracted from total binding. The binding inhibition activity of a test compound is shown by a ratio of the value obtained by subtracting a measured value in presence of a test compound from the total binding to the specific binding.

Question: Which IC50 does the source give for NWNSFGLRF-NH2 (also called Compound No. 4) [des(1)-MS10] here?
Answer: 260 nM

Question: Which IC50 does the source give for B1 here?
Answer: 410 nM

Question: Which IC50 does the source give for B2 here?
Answer: 480 nM

Question: For ANWNSFGLRF-NH2 (also called Compound No. 72) [[Ala1]MS10], which IC50 is on record?
Answer: 540 nM

Question: With YDWNSFGLRF-NH2 (also called Compound No. 57) [[Asp2]MS10] as the binder, how does the IC50 read?
Answer: 100 nM

Question: How did the IC50 turn out when [dY]N[dA]NSF[azaGly]L[Arg(Me)]F-NH2 (also called Compound No. 252) [[D-Tyr1,D-Ala3,AzaGly7,Arg(Me)9]MS10] was run?
Answer: 580 nM

Question: YNANSFGLRF-NH2 (also called Compound No. 67) [[Ala3]MS10] was tested. Which IC50 did it give?
Answer: 27 nM

Question: Which IC50 does the source give for YNWNYFGLRF-NH2 (also called Compound No. 23) [[Tyr5]MS10] here?
Answer: 400 nM

Question: Which IC50 does the source give for YNWNSFGLKF-NH2 (also called Compound No. 44) [[Lys9]MS10] here?
Answer: 190 nM

Question: Which IC50 does the source give for YNSNSFGLRF-NH2 (also called Compound No. 69) [[Ser3]MS10] here?
Answer: 83 nM

Question: B3 was tested. Which IC50 did it give?
Answer: 27 nM

Question: With YYWNSFGLRF-NH2 (also called Compound No. 58) [[Tyr2]MS10] as the binder, how does the IC50 read?
Answer: 16 nM

Question: YNKNSFGLRF-NH2 (also called Compound No. 71) [[Lys3]MS10] was tested. Which IC50 did it give?
Answer: 66 nM

Question: With [dY]NSNSF[azaGly]L[Arg(Me)]F-NH2 (also called Compound No. 191) [[D-Tyr1,Ser3,AzaGly7,Arg(Me)9]MS10] as the binder, how does the IC50 read?
Answer: 300 nM

Question: Which IC50 does the source give for YNDNSFGLRF-NH2 (also called Compound No. 70) [[Asp3]MS10] here?
Answer: 200 nM

Question: With [dY]NTNSF[azaGly]L[Arg(Me)]F-NH2 (also called Compound No. 221) [[D-Tyr1,Thr3,AzaGly7,Arg(Me)9]MS10] as the binder, how does the IC50 read?
Answer: 95 nM

Question: With YLWNSFGLRF-NH2 (also called Compound No. 59) [[Leu2]MS10] as the binder, how does the IC50 read?
Answer: 340 nM

Question: How did the IC50 turn out when YNWNSFGVRF-NH2 (also called Compound No. 107) [[Val8]MS10] was run?
Answer: 120 nM

Question: Which IC50 does the source give for YNWNSFGLR[Trp(For)″]-NH2 (also called Compound No. 186) [[Trp(For)10]MS10] here?
Answer: 460 nM

Question: With YNLNSFGLRF-NH2 (also called Compound No. 68) [[Leu3]MS10] as the binder, how does the IC50 read?
Answer: 7.7 nM

Question: With LNWNSFGLRF-NH2 (also called Compound No. 73) [[Leu1]MS10] as the binder, how does the IC50 read?
Answer: 220 nM

Question: YNWNSYGLRF-NH2 (also called Compound No. 150) [[Tyr6]MS10] was tested. Which IC50 did it give?
Answer: 320 nM
